Experimental data as given in patent publication US6380375B1, “DNA encoding monkey gonadotropin releasing hormone receptor” (Merck & Co., Inc., priority 1999, dated 2002).

Assays:
[1] = biological target: monkey gonadotropin-releasing hormone (GnRH) receptor (monkey); assay: whole cell radioligand binding, eight of the 96 neoR CHO-K1 clones screened
[2] = biological target: monkey gonadotropin-releasing hormone (GnRH) receptor (monkey); assay: whole cell radioligand binding, best CHO-K1 clone expressing the monkey GnRH receptor
[3] = biological target: monkey gonadotropin-releasing hormone (GnRH) receptor (monkey); assay: cell-based or functional assay
monkey GnRH receptor [4] = assay: Phosphoinositide (PI) turnover assay in CHO-K1 cells stably expressing the monkey GnRH receptor; format: cell-based; conditions: monkey GnRHR-CHO-K1 cells, 37° C., 1 hour, FIG. 7; read-out: EC50 of GnRH-stimulated PI turnover
Procedure: The ORF of the monkey GnRH receptor was subcloned into a polycistronic expression vector pIRES1.neo (Clontech Laboratories, Palo Alto, Calif.) to generate cells that stably express these receptors. In this vector, the cloned receptor cDNA and the neo gene were transcribed into one mRNA. The plasmid DNA of pIRES1.neo-mkGnRHR was transfected into CHO-K1 cells using the method of lipofectin. Transfection was carried out for overnight and the cells were split 48 hours later. G418 at 1 mg/ml was added 24 hours after splitting, and its concentration was increased to 2 mg/ml in 2-3 days. After 10 days selection by G418, colonies were picked and transferred to 24-well plates. The monkey GnRH receptor expression clones were screened by the whole cell binding assay using a radiolabeled peptide agonist of GnRH, 5-(^125Iodo-Tyr)-Buserelin (Woods Assay, Portland, Oreg.). […] After single cell isolation, the membrane from this clone was prepared, and the membrane binding assay was performed using ^125I-buserelin. […] The GnRH-stimulated PI turnover was also performed.
CHO-K1 cells stably expressing the monkey GnRH receptor are functionally coupled to phospholipase C. […] The eluate was then counted in a scintillation counter.

monkey GnRH receptor [5] = assay: Aequorin bioluminescence assay in CHO-K1 cells stably co-expressing the monkey GnRH receptor and apo-aequorin; format: cell-based; conditions: CHO-K1 cells co-expressing monkey GnRHR and apo-aequorin; P1/(P1+P2) response
Procedure: To construct this dual stable cell line, the 600 bp aeq gene was cut out by EcoRI and KpnI from pcDNA3.aeq, and inserted into pIRES1hyg (Clontech Laboratories, Palo Alto, Calif.) at BamHI that was blunt-ended. The positive clones were identified by colony-hybridization using the probe of aeq. The new construct that contained aeq and hyg was transfected into monkey GnRHR-CHO-K1 cells (as Example 5). The transfectants were selected by 600 μg/ml hygromycin (Boehringer Mannheim, Indianapolis, Ind.) for 10 days, and 480 hyg^r colonies were transferred into 96-well plates. These clones were assayed for aequorin by the aequorin bioluminescence assay as described in Example 7, and many positive clones were identified. […] This clone was single cell isolated, and used for the functional evaluation of the monkey GnRH receptor by the aequorin assay.
The aequorin assay has been widely used to monitor the changes in the cytosolic Ca^2+ concentration caused by the activation of the G-protein coupled receptors. […] The plate was read immediately in a Bioluminomitor (Lumino Skan RS) for 30 seconds. […] The remaining unreacted aequorin was determined by lysing the cells with 0.1% Triton X-100 (Sigma, St. Louis, Mo.). […] The percentage of aequorin which responded to GnRH challenge was calculated as P1/(P1+P2). […]

Molecule	specific binding, fold above the non-specific binding [1] [fold]	fold above the background [2] [fold]	specific binding activity [2] [cpm]	GnRH-stimulated PI turnover, EC50 [3] [nM]	aequorin bioluminescence assay, AUC for P1 [3]	aequorin bioluminescence assay, EC50 of GnRH [3] [nM]	aequorin bioluminescence assay, P1/(P1+P2) ratio [3] [%]	EC50 (monkey GnRH receptor [4]) [nM]	EC50 (monkey GnRH receptor [5]) [nM]
5-(125Iodo-Tyr)-Buserelin (peptide)	3	5	645	–	–	–	–	–	–
Gonadotropin-releasing hormone (neuronal decapeptide hormone released from hypothalamus; obtained from a vendor and used as agonist) peptide: QHWSYGLRPGGKRDAENLIDSFQEIVKEVGQLAETQRFECTTHQPRSPLRDLKGALESLIEEETGQKKI	–	–	–	0.43	1290	2	71	0.43	2
